# B1: Refmab #2 (antibody, V domains shown)
# VH: QVQLVQSGAEVKKPGSSVKVSCKASGGTFSDYAISWVRQAPGQGLEWMGRIIPILGVADYAQKFQGRVTITADKSTRTAYMELSSLRSEDTAVYYCARNWADAFDIWGQGTMVTVSS
# VL: DIQLTQSPSSLSASVGDRVTITCRASQGISSVLAWYQQKPGKAPKLLIYDASSLESGVPSRFSGSGSGTDFTLTISSLQPEDFATYYCQQFDSSITFGQGTKLEIK
# notes: In the alanine scan antibodies were used as IgG or Fab
# B2: Refmab #3 (antibody, V domains shown)
# VH: QVQLVQSGAEVKKPGSSVKVSCKASGYTFTDYNMHWVRQAPGQGLEWIGYIYPYNGGTGYNQKFKSKATITADESTNTAYMELSSLRSEDTAVYYCARGRPAMDYWGQGTLVTVSS
# VL: DIQMTQSPSSLSASVGDRVTITCRASESVDNYGISFMNWFQQKPGKAPKLLIYAASNQGSGVPSRFSGSGSGTDFTLTISSLQPDDFATYYCQQSKEVPWTFGQGTKVEIK
# notes: as for B1
# B3: Refmab #1 (antibody, V domains shown)
# VH: EVQLVQSGAEVKKPGSSVKVSCKASGYTITDSNIHWVRQAPGQSLEWIGYIYPYNGGTDYNQKFKNRATLTVDNPTNTAYMELSSLRSEDTAFYYCVNGNPWLAYWGQGTLVTVSS
# VL: DIQLTQSPSTLSASVGDRVTITCRASESLDNYGIRFLTWFQQKPGKAPKLLMYAASNQGSGVPSRFSGSGSGTEFTLTISSLQPDDFATYYCQQTKEVPWSFGQGTKVEVK
# notes: In the alanine scan antibodies were used as IgG or Fab; also called hP67.6
# B4: Refmab #1 (antibody, V domains shown)
# VH: B3 VH
# VL: B3 VL
# notes: The alanine scan used IgG or Fab; also called hP67.6
# B5: Refmab #4 (antibody, V domains shown)
# VH: QVQLVQSGAEVKKPGESVKVSCKASGYTFTNYGMNWVKQAPGQGLEWMGWINTYTGEPTYADKFQGRVTMTTDTSTSTAYMEIRNLGGDDTAVYYCARWSWSDGYYVYFDYWGQGTSVTVSS
# VL: DIVMTQSPDSLTVSLGERTTINCKSSQSVLDSSTNKNSLAWYQQKPGQPPKLLLSWASTRESGIPDRFSGSGSGTDFTLTIDSPQPEDSATYYCQQSAHFPITFGQGTRLEIK
# notes: as for B1
# Legend:
# Assay in all cases: alanine scan, flow cytometry, HEK293-T;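 also: antibody binding to each alanine-substituted CD33 mutant expressed transiently in HEK293-T, read as fluorescence minus background, mean of duplicates, relative to wild-type CD33 set as 100%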
# [1] = target: human CD33 R225A (human, UniProt P20138 18-364)
# Protocol: (§1) An alanine scan on human CD33 was performed to the determine the residues on CD33 that are involved in binding to the antibodies investigated. […] Briefly, a mutation library of CD33 was created by high-throughput, site-directed mutagenesis. Each residue was individually mutated to alanine, with alanine codons mutated to serine. The mutant library was arrayed in 384-well microplates and transiently transfected into HEK293-T. Following transfection, cells were incubated with the indicated antibodies (IgG or Fab) at concentrations pre-determined using an independent immunofluorescence titration curve on wild type CD33. […] Binding of each antibody to each mutant clone was determined in duplicates. For each point, background fluorescence was subtracted from the raw data, which were then normalized to antibody reactivity with wild type CD33.
# (§2) Critical residues for antibody binding (outlined in dark grey) were residues whose mutations led to a binding of the test Abs of less than 20%. Additional secondary residues (outlined in light grey) were identified that led to a binding of the test Abs of between 20 and 40% as compared to the wild type CD33.
# [2] = target: human CD33 T192A (human, UniProt P20138 18-364)
# Protocol: as §1, §2
# [3] = target: human CD33 V221A (human, UniProt P20138 18-364)
# Protocol: as §1, §2
# [4] = target: human CD33 K215A (human, UniProt P20138 18-364)
# Protocol: as §1, §2
# [5] = target: human CD33 T226A (human, UniProt P20138 18-364)
# Protocol: as §1, §2
# [6] = target: human CD33 Q236A (human, UniProt P20138 18-364)
# Protocol: as §1, §2
# [7] = target: human CD33 S194A (human, UniProt P20138 18-364)
# Protocol: as §1, §2
# [8] = target: human CD33 A219S (human, UniProt P20138 18-364)
# Protocol: as §1, §2
# [9] = target: human CD33 I227A (human, UniProt P20138 18-364)
# Protocol: as §1, §2
# [10] = target: human CD33 Q228A (human, UniProt P20138 18-364)
# Protocol: as §1, §2
# [11] = target: human CD33 A183S (human, UniProt P20138 18-364)
# Protocol: as §1, §2
# [12] = target: human CD33 F216A (human, UniProt P20138 18-364)
# Protocol: as §1, §2
# [13] = target: human CD33 P174A (human, UniProt P20138 18-364)
# Protocol: as §1, §2
# [14] = target: human CD33 C169A (human, UniProt P20138 18-364)
# Protocol: as §1, §2
# [15] = target: T1, human CD33 I198A (human, UniProt P20138 18-364)
# T1 construct: the '-,' is not explained
# Protocol: as §1, §2
# [16] = target: human CD33 G295A (human, UniProt P20138 18-364)
# Protocol: as §1, §2
# [17] = target: human CD33 S248A (human, UniProt P20138 18-364)
# Protocol: as §1, §2
# [18] = target: human CD33 T284A (human, UniProt P20138 18-364)
# Protocol: as §1, §2
# [19] = target: human CD33 G256A (human, UniProt P20138 18-364)
# Protocol: as §1, §2
# [20] = target: human CD33 V267A (human, UniProt P20138 18-364)
# Protocol: as §1, §2
# [21] = target: human CD33 V294A (human, UniProt P20138 18-364)
# Protocol: as §1, §2
# [22] = target: human CD33 Q311A (human, UniProt P20138 18-364)
# Protocol: as §1, §2
# [23] = target: human CD33 A269S (human, UniProt P20138 18-364)
# Protocol: as §1, §2
# [24] = target: human CD33 R287A (human, UniProt P20138 18-364)
# Protocol: as §1, §2
# [25] = target: human CD33 A272S (human, UniProt P20138 18-364)
# Protocol: as §1, §2
# [26] = target: human CD33 F243A (human, UniProt P20138 18-364)
# Protocol: as §1, §2
# [27] = target: human CD33 K283A (human, UniProt P20138 18-364)
# Protocol: as §1, §2
# [28] = target: human CD33 G264A (human, UniProt P20138 18-364)
# Protocol: as §1, §2
# [29] = target: human CD33 A261S (human, UniProt P20138 18-364)
# Protocol: as §1, §2
# [30] = target: human CD33 K309A (human, UniProt P20138 18-364)
# Protocol: as §1, §2
# [31] = target: human CD33 L316A (human, UniProt P20138 18-364)
# Protocol: as §1, §2
# [32] = target: human CD33 V257A (human, UniProt P20138 18-364)
# Protocol: as §1, §2
# [33] = target: human CD33 L275A (human, UniProt P20138 18-364)
# Protocol: as §1, §2
# [34] = target: human CD33 K313A (human, UniProt P20138 18-364)
# Protocol: as §1, §2
# [35] = target: human CD33 H310A (human, UniProt P20138 18-364)
# Protocol: as §1, §2
# [36] = target: human CD33 I278A (human, UniProt P20138 18-364)
# Protocol: as §1, §2
# human CD33 S194A, sequence (P20138 18-364 S194A limits assumed): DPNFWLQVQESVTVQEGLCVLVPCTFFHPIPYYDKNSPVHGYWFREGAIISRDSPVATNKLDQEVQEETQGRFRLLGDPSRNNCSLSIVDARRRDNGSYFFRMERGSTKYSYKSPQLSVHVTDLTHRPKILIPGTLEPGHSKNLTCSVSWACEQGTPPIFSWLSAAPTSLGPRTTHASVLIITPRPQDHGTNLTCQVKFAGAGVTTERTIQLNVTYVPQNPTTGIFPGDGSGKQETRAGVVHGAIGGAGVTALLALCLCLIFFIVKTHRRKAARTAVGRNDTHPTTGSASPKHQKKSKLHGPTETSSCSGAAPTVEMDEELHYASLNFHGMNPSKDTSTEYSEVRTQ
# T1 sequence (P20138 18-364 I198A limits assumed): as the sequence (P20138 18-364 S194A limits assumed) above, with A177S, I181A counted along it
# human CD33 A183S, sequence (P20138 18-364 A183S limits assumed): as the sequence (P20138 18-364 S194A limits assumed) above, with A166S, A177S counted along it
# human CD33 V221A, sequence (P20138 18-364 V221A limits assumed): as the sequence (P20138 18-364 S194A limits assumed) above, with A177S, V204A counted along it
# human CD33 I227A, sequence (P20138 18-364 I227A limits assumed): as the sequence (P20138 18-364 S194A limits assumed) above, with A177S, I210A counted along it
# human CD33 Q236A, sequence (P20138 18-364 Q236A limits assumed): as the sequence (P20138 18-364 S194A limits assumed) above, with A177S, Q219A counted along it
# human CD33 A219S, sequence (P20138 18-364 A219S limits assumed): as the sequence (P20138 18-364 S194A limits assumed) above, with A177S, A202S counted along it
# human CD33 Q228A, sequence (P20138 18-364 Q228A limits assumed): as the sequence (P20138 18-364 S194A limits assumed) above, with A177S, Q211A counted along it
# human CD33 C169A, sequence (P20138 18-364 C169A limits assumed): as the sequence (P20138 18-364 S194A limits assumed) above, with C152A, A177S counted along it
# human CD33 T226A, sequence (P20138 18-364 T226A limits assumed): as the sequence (P20138 18-364 S194A limits assumed) above, with A177S, T209A counted along it
# human CD33 F216A, sequence (P20138 18-364 F216A limits assumed): as the sequence (P20138 18-364 S194A limits assumed) above, with A177S, F199A counted along it
# human CD33 R225A, sequence (P20138 18-364 R225A limits assumed): as the sequence (P20138 18-364 S194A limits assumed) above, with A177S, R208A counted along it
# human CD33 T192A, sequence (P20138 18-364 T192A limits assumed): as the sequence (P20138 18-364 S194A limits assumed) above, with T175A, A177S counted along it
# human CD33 P174A, sequence (P20138 18-364 P174A limits assumed): as the sequence (P20138 18-364 S194A limits assumed) above, with P157A, A177S counted along it
binder,measurement,setting,value
B1,Mean % WT Binding,[1],123%
same,Mean % WT Binding,[2],119%
same,Mean % WT Binding,[3],92.3%
same,Mean % WT Binding,[4],98.4%
same,Mean % WT Binding,[5],112%
same,Mean % WT Binding,[6],111%
same,Mean % WT Binding,[7],112%
same,Mean % WT Binding,[8],117%
same,Mean % WT Binding,[9],110%
same,Mean % WT Binding,[10],120%
same,Mean % WT Binding,[11],119%
same,Mean % WT Binding,[12],101%
same,Mean % WT Binding,[13],117%
same,Mean % WT Binding,[14],106%
same,Mean % WT Binding,[15],114%
B2,Mean % WT Binding,[1],98.9%
same,Mean % WT Binding,[2],102%
same,Mean % WT Binding,[3],89%
same,Mean % WT Binding,[4],79.8%
same,Mean % WT Binding,[5],100%
same,Mean % WT Binding,[6],104%
same,Mean % WT Binding,[7],101%
same,Mean % WT Binding,[8],113%
same,Mean % WT Binding,[9],127%
same,Mean % WT Binding,[10],157%
same,Mean % WT Binding,[11],117%
same,Mean % WT Binding,[12],152%
same,Mean % WT Binding,[13],110%
same,Mean % WT Binding,[14],115%
same,Mean % WT Binding,[15],91.2%
B3,Mean % WT Binding,[1],97.8%
same,Mean % WT Binding,[2],101%
same,Mean % WT Binding,[3],91.9%
same,Mean % WT Binding,[4],84.5%
same,Mean % WT Binding,[5],92%
same,Mean % WT Binding,[6],89.5%
same,Mean % WT Binding,[7],93.7%
same,Mean % WT Binding,[8],104%
same,Mean % WT Binding,[9],86.7%
same,Mean % WT Binding,[10],99.4%
same,Mean % WT Binding,[11],85.4%
same,Mean % WT Binding,[12],87.3%
same,Mean % WT Binding,[13],90.9%
same,Mean % WT Binding,[14],75.8%
same,Mean % WT Binding,[15],86.7%
B4,Mean % WT Binding,[16],92.7 % WT binding
same,Mean % WT Binding,[17],88.4 % WT binding
same,Mean % WT Binding,[18],92.8 % WT binding
same,Mean % WT Binding,[19],89.8 % WT binding
same,Mean % WT Binding,[20],88.3 % WT binding
same,Mean % WT Binding,[21],91.7 % WT binding
same,Mean % WT Binding,[22],90.4 % WT binding
same,Mean % WT Binding,[23],107 % WT binding
same,Mean % WT Binding,[24],94.7 % WT binding
same,Mean % WT Binding,[25],87.6 % WT binding
same,Mean % WT Binding,[26],86.5 % WT binding
same,Mean % WT Binding,[27],92.7 % WT binding
same,Mean % WT Binding,[28],95 % WT binding
same,Mean % WT Binding,[29],84.1 % WT binding
same,Mean % WT Binding,[30],92.7 % WT binding
same,Mean % WT Binding,[31],84.6 % WT binding
same,Mean % WT Binding,[32],102 % WT binding
same,Mean % WT Binding,[33],88.7 % WT binding
same,Mean % WT Binding,[34],84.1 % WT binding
same,Mean % WT Binding,[35],97.4 % WT binding
same,Mean % WT Binding,[36],99.1 % WT binding
B5,Mean % WT Binding,[1],108%
same,Mean % WT Binding,[2],99.7%
same,Mean % WT Binding,[3],104%
same,Mean % WT Binding,[4],96.7%
same,Mean % WT Binding,[5],91.9%
same,Mean % WT Binding,[6],103%
same,Mean % WT Binding,[7],79%
same,Mean % WT Binding,[8],112%
same,Mean % WT Binding,[9],78.7%
same,Mean % WT Binding,[10],112%
same,Mean % WT Binding,[11],103%
same,Mean % WT Binding,[12],71.6%
same,Mean % WT Binding,[13],118%
same,Mean % WT Binding,[14],69.3%
same,Mean % WT Binding,[15],94.4%

# From US20260242735A1 (UNIVERSIT T BASEL, published 2026)
